“And” between values parts separate entries of the source, which are not always exact repeats. Equal entries are not always repeated.
Molecular target: GFP-tagged TDP-43-ΔNLS-KQ (GFP-TDP43-ΔNLS-K145Q, pTX066) (human) (UniProt Q13148)
Assay: non-reducing SDS-PAGE and immunoblot of immunoprecipitated aggregates

Substance: GFP-tagged TDP-43-ΔNLS-KQ (GFP-TDP43-ΔNLS-K145Q, pTX066) (from UniProt Q13148 1-414) (natural protein)
- stoichiometry N: 2 and 4
